Assay results taken from patent publication US7109015B2, “Removal of N-terminal methionine from proteins by engineered methionine aminopeptidase” (Academia Sinica, priority 2004, dated 2006).
Several values for one entry are separate records, joined by “and”; a condition that tells them apart may be missing. Identical values can stand only once. Marks after values point to notes of the source that are not given here.

Legend:
Met-tagged onconase = test: In vivo catalytic activity of MetAPs co-expressed with Met-tagged onconase in E. coli BL21(DE3); N-terminus by Edman degradation; format: cell-based
How it was run: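 Wild-type or mutant (Tyr168, Met206, Gln233) E. coli MetAP co-expressed with Met-tagged onconase in E. coli BL21(DE3). Insoluble onconase denatured, renatured and purified, or secreted via pelB and purified from medium. Stored in 20 mM sodium phosphate pH 7.0 for N-terminal pyroglutamate formation; N-terminus sequenced by Edman degradation.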

RC-RNase4 = test: In vivo Met removal, co-expression in E. coli, RC-RNase 4 substrate; format: cell-based, Rana catesbeiana; details: solubility −
Procedure: The MetAP was expressed alone or co-expressed with a target protein, i.e., onconase and RC-RNaseL1, in E. coli BL21 (DE3) in the presence of 0.5 mM IPTG at 37° C.
Proteins in the cell pellet or in the soluble fraction were separated by 13.3% SDS-PAGE and contact-transferred to ProBlott™ membrane (Applied Bioystems) in transfer buffer (10 mM Tris-HCl, pH 7.5, 50 mM NaCl, 2 mM EDTA, 0.5 mM 2-mercaptoethanol) overnight. The five N-terminal residues of the transferred protein were determined by Edman degradation. The percentage of Met removal was calculated by dividing the amount of proteins initiated with the penultimate residue with the amount of total proteins (including proteins initiated with the penultimate residue and unprocessed protein initiated with Met) after the first degradation cycle. In theory, this percentage should remain the same after each degradation cycle. Therefore, in order to avoid experimental variation, the same calculation was made from five consecutive degradation cycles, e.g., M, Q, N, W and L for onconase. The efficiency of Met removal is reported as the mean values of at least three cycles.

[1] = substrate MAA-Onc, in vivo in E. coli
[2] = substrate MAG-Onc, in vivo in E. coli
[3] = substrate MAP-Onc, in vivo in E. coli
[4] = substrate MLA-Onc, in vivo in E. coli
[5] = substrate MLG-Onc, in vivo in E. coli
[6] = substrate MLH-Onc, in vivo in E. coli
[7] = substrate MLL-Onc, in vivo in E. coli
[8] = substrate MLN-Onc, in vivo in E. coli
[9] = substrate MLS-Onc, in vivo in E. coli
[10] = substrate MLV-Onc, in vivo in E. coli
[11] = substrate MQA-Onc, in vivo in E. coli
[12] = substrate MQM-Onc, in vivo in E. coli
[13] = substrate MQN-Onc, in vivo in E. coli
[14] = substrate MQT-Onc, in vivo in E. coli
[15] = substrate MAAWA (SEQ ID NO:15)-RC4
[16] = substrate MAPWA (SEQ ID NO:16)-RC4
[17] = substrate MQAWA (SEQ ID NO:14)-RC4

B1: MetAP-*TG (protein)
chain: AISIKTPEDIEKMRVAGRLAAEVLEMIEPYVKPGVSTGELDRICNDYIVNEQHAVSACLGYHGYPKSVCISINEVVCHGIPDDAKLLKDGDIVNIDVTVIKDGFHGDTSKMFIVGKPTIMGERLCRITQESLYLALRMVKPGINLREIGAAIQKFVEAEGFSVVREYCGHGIGRGFHEEPQVLHYDSRETNVVLKPGMTFTIEPTVNAGKKEIRTMKDGWTVKTKDRSLSAGYEHTIVVTDNGCEILTLRKDDTIPAIISHDE
- Lower efficiency of Met removal with MetAP and target on separate vectors (Met-tagged onconase; MQD-initiated onconase or GST, pET29b/pET22b versus same vector): 10–15 % less
- Catalytic activity (%): percent of penultimate residue removed (Met-tagged onconase; [1]): 25%
- Catalytic activity (%): removal of N-terminal Met (Met-tagged onconase; [1]): 100%
- Catalytic activity (%): removal of N-terminal Met (Met-tagged onconase; substrate MAD-Onc, in vivo in E. coli): 99% and 100%
- Catalytic activity (%): removal of N-terminal Met (Met-tagged onconase; substrate MAE-Onc, in vivo in E. coli): 96%
- Catalytic activity (%): removal of N-terminal Met (Met-tagged onconase; substrate MAF-Onc, in vivo in E. coli): 100%
- Catalytic activity (%): percent of penultimate residue removed (Met-tagged onconase; [2]): 57%
- Catalytic activity (%): removal of N-terminal Met (Met-tagged onconase; [2]): 80%
- Catalytic activity (%): removal of N-terminal Met (Met-tagged onconase; substrate MAK-Onc, in vivo in E. coli): 100%
- Catalytic activity (%): removal of N-terminal Met (Met-tagged onconase; substrate MAL-Onc, in vivo in E. coli): 100%
- Catalytic activity (%): removal of N-terminal Met (Met-tagged onconase; substrate MAM-Onc, in vivo in E. coli): 96%
- Catalytic activity (%): removal of N-terminal Met (Met-tagged onconase; substrate MAN-Onc, in vivo in E. coli): 100%
- Catalytic activity (%): percent of penultimate residue removed (Met-tagged onconase; [3]): 38%
- Catalytic activity (%): removal of N-terminal Met (Met-tagged onconase; [3]): 72%
- Catalytic activity (%): removal of N-terminal Met (Met-tagged onconase; substrate MAQ-Onc, in vivo in E. coli): 97%
- Catalytic activity (%): removal of N-terminal Met (Met-tagged onconase; substrate MAR-Onc, in vivo in E. coli): 94%
- Catalytic activity (%): removal of N-terminal Met (Met-tagged onconase; substrate MAV-Onc, in vivo in E. coli): 100%
- Catalytic activity (%): removal of N-terminal Met (Met-tagged onconase; substrate MDD-Onc, in vivo in E. coli): 68%
- Catalytic activity (%): removal of N-terminal Met (Met-tagged onconase; substrate MED-Onc, in vivo in E. coli): 33%
- Catalytic activity (%): removal of N-terminal Met (Met-tagged onconase; substrate MFA-Onc, in vivo in E. coli): 2%
- Catalytic activity (%): removal of N-terminal Met (Met-tagged onconase; substrate MFD-Onc, in vivo in E. coli): 5%
- Catalytic activity (%): removal of N-terminal Met (Met-tagged onconase; substrate MGD-Onc, in vivo in E. coli): 95%
- Catalytic activity (%): removal of N-terminal Met (Met-tagged onconase; substrate MHD-Onc, in vivo in E. coli): 92%
- Catalytic activity (%): removal of N-terminal Met (Met-tagged onconase; substrate MIA-Onc, in vivo in E. coli): 36%
- Catalytic activity (%): removal of N-terminal Met (Met-tagged onconase; substrate MID-Onc, in vivo in E. coli): 22%
- Catalytic activity (%): removal of N-terminal Met (Met-tagged onconase; substrate MKA-Onc, in vivo in E. coli): 2%
- Catalytic activity (%): removal of N-terminal Met (Met-tagged onconase; substrate MKD-Onc, in vivo in E. coli): 3%
- Catalytic activity (%): percent of penultimate residue removed (Met-tagged onconase; [4]): 100(100) %
- Catalytic activity (%): removal of N-terminal Met (Met-tagged onconase; [4]): 100(100) %
- Catalytic activity (%): removal of N-terminal Met (Met-tagged onconase; substrate MLD-Onc, in vivo in E. coli): 86% and 90%
- Catalytic activity (%): percent of penultimate residue removed (Met-tagged onconase; [5]): 100(100) %
- Catalytic activity (%): removal of N-terminal Met (Met-tagged onconase; [5]): 100(100) %
- Catalytic activity (%): percent of penultimate residue removed (Met-tagged onconase; [6]): 36%
- Catalytic activity (%): removal of N-terminal Met (Met-tagged onconase; [6]): 75%
- Catalytic activity (%): percent of penultimate residue removed (Met-tagged onconase; [7]): 24%
- Catalytic activity (%): removal of N-terminal Met (Met-tagged onconase; [7]): 88%
- Catalytic activity (%): removal of N-terminal Met (Met-tagged onconase; substrate MLM-Onc, in vivo in E. coli): 100%
- Catalytic activity (%): percent of penultimate residue removed (Met-tagged onconase; [8]): 58%
- Catalytic activity (%): removal of N-terminal Met (Met-tagged onconase; [8]): 92%
- Catalytic activity (%): removal of N-terminal Met (Met-tagged onconase; substrate MLP-Onc, in vivo in E. coli): 5%
- Catalytic activity (%): percent of penultimate residue removed (Met-tagged onconase; [9]): 59%
- Catalytic activity (%): removal of N-terminal Met (Met-tagged onconase; [9]): 82%
- Catalytic activity (%): removal of N-terminal Met (Met-tagged onconase; substrate MLT-Onc, in vivo in E. coli): 91%
- Catalytic activity (%): percent of penultimate residue removed (Met-tagged onconase; [10]): 27%
- Catalytic activity (%): removal of N-terminal Met (Met-tagged onconase; [10]): 76%
- Catalytic activity (%): removal of N-terminal Met (Met-tagged onconase; substrate MMD-Onc, first Met, in vivo in E. coli): 100%
- Catalytic activity (%): percent of penultimate residue removed (Met-tagged onconase; substrate MMD-Onc, second Met, in vivo in E. coli): 73%
- Catalytic activity (%): removal of N-terminal Met (Met-tagged onconase; substrate MND-Onc, in vivo in E. coli): 85%
- Catalytic activity (%): removal of N-terminal Met (Met-tagged onconase; substrate MPD-Onc, in vivo in E. coli): 93%
- Catalytic activity (%): percent of penultimate residue removed (Met-tagged onconase; [11]): 100(100) %
- Catalytic activity (%): removal of N-terminal Met (Met-tagged onconase; [11]): 100(100) %
- Catalytic activity (%): removal of N-terminal Met (Met-tagged onconase; substrate MQD-Onc, in vivo in E. coli): 91% and 90%
- Catalytic activity (%): removal of N-terminal Met (Met-tagged onconase; substrate MQD-Onc, in vivo in E. coli, listed as MetAP-M206T-Q233G): 91%
- Catalytic activity (%): removal of N-terminal Met (Met-tagged onconase; substrate MQDWL (SEQ ID NO:10)-Onc, solubility −, same vector): 91%
- Catalytic activity (%): removal of N-terminal Met (Met-tagged onconase; substrate MQDWL (SEQ ID NO:10)-Onc, solubility −, target in pET22b co-transformed with MetAP in pET29b): 80%
- Catalytic activity (%): removal of N-terminal Met (Met-tagged onconase; substrate MQE-Onc, in vivo in E. coli): 71%
- Catalytic activity (%): removal of N-terminal Met (Met-tagged onconase; substrate MQF-Onc, in vivo in E. coli): 80%
- Catalytic activity (%): removal of N-terminal Met (Met-tagged onconase; substrate MQK-Onc, in vivo in E. coli): 78%
- Catalytic activity (%): percent of penultimate residue removed (Met-tagged onconase; [12]): 59%
- Catalytic activity (%): removal of N-terminal Met (Met-tagged onconase; [12]): 100%
- Catalytic activity (%): percent of penultimate residue removed (Met-tagged onconase; [13]): 65%
- Catalytic activity (%): removal of N-terminal Met (Met-tagged onconase; [13]): 100%
- Catalytic activity (%): removal of N-terminal Met (Met-tagged onconase; substrate MQP-Onc, in vivo in E. coli): 25%
- Catalytic activity (%): removal of N-terminal Met (Met-tagged onconase; substrate MQR-Onc, in vivo in E. coli): 83%
- Catalytic activity (%): percent of penultimate residue removed (Met-tagged onconase; [14]): 26%
- Catalytic activity (%): removal of N-terminal Met (Met-tagged onconase; [14]): 76%
- Catalytic activity (%): removal of N-terminal Met (Met-tagged onconase; substrate MQW-Onc, in vivo in E. coli): 95%
- Catalytic activity (%): removal of N-terminal Met (Met-tagged onconase; substrate MRA-Onc, in vivo in E. coli): 2%
- Catalytic activity (%): removal of N-terminal Met (Met-tagged onconase; substrate MRD-Onc, in vivo in E. coli): 2%
- Catalytic activity (%): removal of N-terminal Met (Met-tagged onconase; substrate MSD-Onc, in vivo in E. coli): 99%
- Catalytic activity (%): removal of N-terminal Met (Met-tagged onconase; substrate MTD-Onc, in vivo in E. coli): 85%
- Catalytic activity (%): removal of N-terminal Met (Met-tagged onconase; substrate MVD-Onc, in vivo in E. coli): 80%
- Catalytic activity (%): removal of N-terminal Met (Met-tagged onconase; substrate MWA-Onc, in vivo in E. coli): 2%
- Catalytic activity (%): removal of N-terminal Met (Met-tagged onconase; substrate MWD-Onc, in vivo in E. coli): 2%
- Catalytic activity (%): removal of N-terminal Met (Met-tagged onconase; substrate MWD-Onc, in vivo in E. coli, listed as *TG): inactive
- Catalytic activity (%): removal of N-terminal Met (Met-tagged onconase; substrate MYA-Onc, in vivo in E. coli): 8%
- Catalytic activity (%): removal of N-terminal Met (Met-tagged onconase; substrate MYD-Onc, in vivo in E. coli): 1%
- Catalytic activity (%): removal of N-terminal Met (Met-tagged onconase; substrate MYD-Onc, in vivo in E. coli, listed as *TG): inactive
- Catalytic activity (%): percent of penultimate residue removed (RC-RNase4; [15]): 18%
- Catalytic activity (%): removal of N-terminal Met (RC-RNase4; [15]): 100%
- Catalytic activity (%): percent of penultimate residue removed (RC-RNase4; [16]): 63%
- Catalytic activity (%): removal of N-terminal Met (RC-RNase4; [16]): 79%
- Catalytic activity (%): percent of penultimate residue removed (RC-RNase4; [17]): 100 (100)^c %
- Catalytic activity (%): removal of N-terminal Met (RC-RNase4; [17]): 100 (100)^c %
- Catalytic activity (%): removal of N-terminal Met (RC-RNase4; substrate MQDWA (SEQ ID NO:13)-RC4): 93%
